Target: T1, TDP-43 1-206 amino acid fragment, containing the RRM1 domain (Homo sapiens (Human), UniProt Q13148 1-206)
T1 construct: Spotted on membranes for the dot blot; also called amino acids 1-206 of TDP-43
Assay: dot blot, scFv-conditioned medium, anti-myc HRP
Protocol: Example 6: Anti-TDP-43 Antibodies Having an scFv Format Detect TDP-43 RRM1 Domain Different concentrations of TDP-43 1-206 amino acid fragment, containing the RRM1 domain were loaded onto membranes by dot blot. Membranes were incubated overnight with media from Hek293 cells that had been transfected with pScFv9 expression plasmid containing the nucleic acids encoding E6_VH1Vk9 and E6_VH7Vk9. The myc signal was detected using anti-myc HRP antibody incubation.

T1 sequence (Q13148 1-206): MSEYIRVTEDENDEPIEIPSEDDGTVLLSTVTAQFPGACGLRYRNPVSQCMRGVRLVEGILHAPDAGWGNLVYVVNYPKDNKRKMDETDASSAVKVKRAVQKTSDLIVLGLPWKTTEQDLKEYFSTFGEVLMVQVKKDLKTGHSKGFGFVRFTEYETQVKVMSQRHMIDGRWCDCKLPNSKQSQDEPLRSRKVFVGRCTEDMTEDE

B1: E6_VH1Vκ9 scFv antibody (scFv)
scFv: LQESGGGLVQPGGSMKLSCVASGFTSSNYWLNWVRQSPERGLEWVAEIRLKSNNYATNYAESVKGRFTISRDDSKSSVYLQVNNLRAEDTGIYYCTRSTARATPYYFDYWGQGTTVTVSSGGGGSGGGGSGGGGSDIELTQSPSSLAVSAGEKVTMSCKSSQSLLNSRARKNFLTWYQQKPGQSPKLLIYWASTRESGVPDRFTGSGSGTDFTLTISSVQAEDLAVYYCKQSYNLYTFGGGTKLEEQKLISEEDLN
notes: The signal is left out here; Used as conditioned medium or inside transfected cells; also called E6_VH1Vk9; VH1Vk9
B1: binds.

B2: E6_VH7Vκ9 scFv antibody (scFv)
scFv: LQQSGGGLVQPGGSMKLSCVASGFTSSNYWLNWVRQSPERGLEWVAEIRLKSNNYATNYAESVKGRFTISRDDSKSSVYLQVNNLRAEDTGIYYCTRSTARATPYYFDYWGQGTTVTVSSGGGGSGGGGSGGGGSDIELTQSPSSLAVSAGEKVTMSCKSSQSLLNSRARKNFLTWYQQKPGQSPKLLIYWASTRESGVPDRFTGSGSGTDFTLTISSVQAEDLAVYYCKQSYNLYTFGGGTKLEEQKLISEEDLN
notes: The signal is left out here; It differs from E6_VH1Vκ9 by one residue (Q instead of E); also called E6_VH7Vk9; VH7Vk9
B2: binds.

Source: patent US10202443 (UNIVERSIT LAVAL, dated 2019)
